Measurements published in PMC3863973 (Nature Communications, 2013).
Positions count from the first letter of the chain named.

T1: His-tagged KaiC-WT (Synechococcus elongatus PCC 7942, UniProt Q79PF4 1-519)
T1 sequence: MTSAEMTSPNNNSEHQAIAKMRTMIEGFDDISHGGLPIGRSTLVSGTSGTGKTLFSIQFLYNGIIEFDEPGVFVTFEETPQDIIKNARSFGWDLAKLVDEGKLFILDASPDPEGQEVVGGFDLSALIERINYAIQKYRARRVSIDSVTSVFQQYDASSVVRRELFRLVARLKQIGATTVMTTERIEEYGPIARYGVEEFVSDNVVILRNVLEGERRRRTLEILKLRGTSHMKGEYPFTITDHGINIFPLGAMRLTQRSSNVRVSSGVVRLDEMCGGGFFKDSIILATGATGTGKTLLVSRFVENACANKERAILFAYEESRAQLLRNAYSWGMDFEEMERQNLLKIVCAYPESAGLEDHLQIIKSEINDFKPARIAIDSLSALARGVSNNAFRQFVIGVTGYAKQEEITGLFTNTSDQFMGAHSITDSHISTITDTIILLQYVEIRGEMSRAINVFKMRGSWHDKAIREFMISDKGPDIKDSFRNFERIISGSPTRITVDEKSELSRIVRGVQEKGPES

T2: FLAG-tagged KaiC-E318Q (Synechococcus elongatus PCC 7942, UniProt Q79PF4 1-519, E318Q)
T2 sequence: T1 sequence with E318Q

B1: FLAG-tagged KaiC-WT (enzyme)
chain: T1 sequence
B2: His-tagged KaiC-AA (enzyme)
chain: T1 sequence with S431A, T432A
B3: His-tagged KaiC-AE (enzyme)
chain: T1 sequence with S431A, T432E
B4: His-tagged KaiC-DA (enzyme)
chain: T1 sequence with S431D, T432A

What was measured:
[1] = molecular target: mutant KaiC (His-tagged KaiC-AA, -DE, -DA or -AE, as a group); test: pull-down
His-tagged KaiC-AA = molecular target: B2; test: pull-down
His-tagged KaiC-AE = molecular target: B3; test: pull-down
His-tagged KaiC-DA = molecular target: B4; test: pull-down
His-tagged KaiC-WT = molecular target: T1, His-tagged KaiC-WT; test: pull-down
FLAG-tagged KaiC-E318Q = molecular target: T2, FLAG-tagged KaiC-E318Q; test: co-IP
FLAG-tagged KaiC-WT = molecular target: B1; test: co-IP

Binder: B1
- stoichiometry N [1]: 4 to 5
- binding result (His-tagged KaiC-AA): binds
- binding result (His-tagged KaiC-AE): binds
- binding result (His-tagged KaiC-DA): binds
- binding result (His-tagged KaiC-WT): binds

Binder: B2
- stoichiometry N (FLAG-tagged KaiC-E318Q): 1

Binder: B3
- stoichiometry N (FLAG-tagged KaiC-WT): ~1

Binder: B4
- stoichiometry N (FLAG-tagged KaiC-WT): ~1
